The results in this text go back to article PMC4991852, “The Sac3 TPR-like region in the Saccharomyces cerevisiae TREX-2 complex is more extensive but independent of the CID region” (Journal of Structural Biology, 2016).

T1: Sac3 (residues 140-805) (S. cerevisiae, UniProt P46674 140-805)
T1 construct: Sac3, S. cerevisiae, residues 140-805 by the complex's name; the text says that residues 1-140 were deleted; also called Sac3 of TREX-2^140–805
T1 sequence (looked up): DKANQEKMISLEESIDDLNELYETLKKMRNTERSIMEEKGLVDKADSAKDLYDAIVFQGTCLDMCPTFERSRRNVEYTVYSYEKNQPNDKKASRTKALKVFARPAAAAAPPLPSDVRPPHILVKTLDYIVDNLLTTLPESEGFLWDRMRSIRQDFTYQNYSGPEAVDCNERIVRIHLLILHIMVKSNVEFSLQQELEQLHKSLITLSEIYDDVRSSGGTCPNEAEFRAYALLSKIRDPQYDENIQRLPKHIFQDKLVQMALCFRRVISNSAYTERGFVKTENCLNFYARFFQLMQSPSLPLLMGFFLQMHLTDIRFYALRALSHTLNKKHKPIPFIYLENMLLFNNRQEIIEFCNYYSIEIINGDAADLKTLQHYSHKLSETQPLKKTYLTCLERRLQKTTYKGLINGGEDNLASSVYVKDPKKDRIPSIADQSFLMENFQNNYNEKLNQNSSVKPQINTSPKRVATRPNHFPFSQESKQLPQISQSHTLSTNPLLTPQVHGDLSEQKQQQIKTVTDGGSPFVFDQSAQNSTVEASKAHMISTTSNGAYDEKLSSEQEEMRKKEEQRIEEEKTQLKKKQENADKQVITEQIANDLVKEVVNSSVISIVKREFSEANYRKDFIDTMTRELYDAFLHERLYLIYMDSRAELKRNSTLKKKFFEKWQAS

B1: Sus1 (natural protein, S. cerevisiae, UniProt Q6WNK7 1-96, looked up)
chain: MTMDTAQLKSQIQQYLVESGNYELISNELKARLLQEGWVDKVKDLTKSEMNINESTNFTQILSTVEPKALEMVSDSTRETVLKQIREFLEEIVDTQ
notes: Sus1, S. cerevisiae; source: Sf9, baculovirus, co-expressed with GST-Sac3; in lysate and purified with the complex (glutathione Sepharose, heparin, SEC)
B2: Sem1 (natural protein, S. cerevisiae, UniProt O94742 1-89, looked up)
chain: MSTDVAAAQAQSKIDLTKKKNEEINKKSLEEDDEFEDFPIDTWANGETIKSNAVTQTNIWEENWDDVEVDDDFTNELKAELDRYKRENQ
notes: Sem1, S. cerevisiae; source: Sf9, baculovirus, co-expressed with GST-Sac3; in lysate and purified with the complex (glutathione Sepharose, heparin, SEC)
B3: Cdc31 (natural protein, S. cerevisiae, UniProt P06704 1-161, looked up)
chain: MSKNRSSLQSGPLNSELLEEQKQEIYEAFSLFDMNNDGFLDYHELKVAMKALGFELPKREILDLIDEYDSEGRHLMKYDDFYIVMGEKILKRDPLDEIKRAFQLFDDDHTGKISIKNLRRVAKELGETLTDEELRAMIEEFDLDGDGEINENEFIAICTDS
notes: Cdc31, S. cerevisiae; source: Sf9, baculovirus, co-expressed with GST-Sac3; in lysate and purified with the complex (glutathione Sepharose, heparin, SEC)
B4: Thp1 (natural protein, S. cerevisiae, UniProt Q08231 1-455, looked up)
chain: MDMANQLLDELAHGNFSHLTLNLSQNGREIAILQKQLTGFDDKQLETFVEQHPAMPNDTRFKIMCTSFLNYARDVDPWSAWSSSDLIFEFYQCLINCLINDNAPHIEMLIPVATRETEFIINLAGKLDSFHLQLHTRSHQFLSHISSILSRLFNSIKPPRGNASSTNIPGKQRILLYLVNKLNNIYFRIESPQLCSNIFKNFQPKSMLAHFNEYQLDQQIEYRYLLGRYYLLNSQVHNAFVQFNEAFQSLLNLPLTNQAITRNGTRILNYMIPTGLILGKMVKWGPLRPFLSQETIDNWSVLYKHVRYGNIQGVSLWLRQNERHLCARQLLIVLLEKLPMVTYRNLIKTVIKSWTTEWGQNKLPYSLIERVLQLSIGPTFEDPGAQEITIYNGIHSPKNVENVLVTLINLGLLRANCFPQLQLCVVKKTTMIQEIVPPVNERITKMFPAHSHVLW
notes: Thp1, S. cerevisiae; The theoretical mass of 195 kDa for TREX-2^1-805 fits whole chains of the four small subunits; source: Sf9, baculovirus, co-expressed with GST-Sac3; in lysate and purified with the complex (glutathione Sepharose, heparin, SEC)

The test concerns the target T1, Sac3 (residues 140-805). The test is described as follows: SEC-SAXS; on-line HPLC with Superdex 200 Increase 3.2/300, beamline BM29 (ESRF), 20 °C; mass from I(0) against a BSA standard. Conditions: both partners purified.
For the molecule B1, the binding result is recorded as “binds”.

Regarding B2, the binding result is given as “binds”.

For B3, the binding result was “binds”.

On to B4, for which the binding result is reported as “binds”.
